Experimental data published in US20090226442A1 (Biogen, published 2009).
Numbering of substitutions follows the chain as printed.

B1: 1P2E7 murine monoclonal anti-RON antibody (antibody, V domains shown)
VH: DVQLQESGPGLVKPSQSLSLTCTVTGDSITSDYAWNWIRQFPGNKLEWMGYISYSGSTSYNPSLKSRFSITRDTSKNQFFLQLNSVTTEDSATYYCARGGFYYRYAGPGFAYWGQGTLVTVSA
VL: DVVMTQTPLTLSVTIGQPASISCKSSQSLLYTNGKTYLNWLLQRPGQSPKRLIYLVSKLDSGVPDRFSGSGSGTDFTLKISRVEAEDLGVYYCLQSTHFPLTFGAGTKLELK
notes: Whole murine hybridoma antibody; kappa light chain; also called 1P2E7.3; 1.P2E7.3
B2: 1P3B2 murine monoclonal anti-RON antibody (antibody, V domains shown)
VH: EVQLQQSGPELEKPGASVKISCKASGYSFTGYNMNWVKQSNGESLEWIGDIDPYYGGTRYNQKFKGKATLTVDKSSSTAYMQLKSLTSEDSAVYYCAREGRGFAYWGQGTLVTVSA
VL: DIQMTQSPASLSASVGETVTITCRASENIYSYLAWYQKKQGKSPQLLVYNAKTSVEGVPSRFSGSGSGIQFSLKINSLQPEDFGSYYCHCQHHYGTLPTFGGGTKLEIK
notes: Whole murine hybridoma antibody; kappa light chain; also called 1P3B2.2; PTA-8813
B3: 1P4A3 murine monoclonal anti-RON antibody (antibody, V domains shown)
VH: B2 VH with K19M, N41T, E43K, G56D, V72A, A97T
VL: DIQMTQSPASLSASVGETVTITCRASENIYSYLAWYQQKQGKSPQLLVYNAKTLAGGVPSRFSGSGSGTQFSLKINSLQPEDFGSYYCQHYYGTPLTFGAGTKLELK
notes: Whole murine hybridoma antibody; kappa light chain; also called 1P4A3.3; 1.P4A3.3
B4: 1P4A12 murine monoclonal anti-RON antibody (antibody, V domains shown)
VH: EVQLQQSGPELVKPGASMKISCKASGYSFTGYTMNWVKQSHGKKLEWIGLINPYNGGTIYNQKFKGKATLTVDKSSSTAYMELLSLTSEDSAVYYCARWLRRGGYAMDYWGQGASVTVSS
VL: DILLTQSPAILSVSPGERVSFSCRASQSIGTSIHWYQQRTNGSPRLLIKFASESISGIPSRFSGSGSGTDFTLSINSVESEDIADYYCQQSDSWPLTFGAGTKLEVK
notes: Whole murine hybridoma antibody; kappa light chain; also called 1P4A12.2; 1.P4A12.2
B5: 1P5B10 murine monoclonal anti-RON antibody (antibody, V domains shown)
VH: B4 VH with K23R, S25A, Y27F, K44S, P53L, Y54N, I59S, Y60H, A114I
VL: B4 VL with S28N, F50Y, V106L
notes: Whole murine hybridoma antibody; kappa light chain; also called 1P5B10.3; 1.P5B10.3.10

Target: T1, PSI domain of RON (G502-P544) thioredoxin fusion protein (human, UniProt Q04912 526-568)
T1 construct: Expressed in E. coli; also called PSI domain alone; not shown: thioredoxin (printed 'thiroedexin') fusion partner; purified on
T1 chain: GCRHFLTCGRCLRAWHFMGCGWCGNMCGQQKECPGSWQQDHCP
Experiment: ELISA on plate-coated PSI domain thioredoxin fusion
Experimental: The ability of the antibodies to bind to soluble RON was measured using a standard ELISA protocol. Briefly, soluble RON protein (R&D Systems, catalog 1947) was coated on Nunc Maxisorb ELISA plates at a concentration of […] in PBS overnight at 4° C. Plates were washed 4 times with an automatic washer in PBS, 0.05% Tween 20. Plates were then blocked in PBS+1% BSA for 1-2 hours at room temperature (RT). After washing, serial dilutions of the antibodies in blocking buffer were added to the plate (100 ul/well) and incubated for 1-2 hours at RT. The plate was washed again 4× with automatic washer (PBS, 0.05% tween 20). Next, the plate was incubated with HRP-labelled donkey anti-mouse polyclonal antibody (Jackson Labs 715-035-130) at a dilution of 1:4000 in blocking buffer (100 ul/well) for 0.5-1 hour RT. The plate was washed again 4× with automatic washer (PBS, 0.05% Tween 20). After the final wash step, the plate was developed with TMB solution (25 ml 100 mM sodium acetate, pH to 6 with citric acid, 4 ul 30% H202, 250 ul 42 mM TMB in DMSO) for 5 minutes. The reaction was stopped with 100 ul H₂SO₄. Plates were read at 450 nm wavelength on Molecular Devices Spectramax M5 and Softmax pro V5 software was used to analyze the data.
The PSI domain of RON (G502-P544) was expressed in E. coli as a thiroedexin-fusion protein. The protein was purified on NiNTA agarose (qiagen) followed by preparative size exclusion chromatography (SEC). This protein was used to coat ELISA plates and analyze antibodies for binding using the same protocol described above for binding of antibodies to soluble RON in Example 10.
B1: no binding.
B2: no binding.
B3: no binding.
B4: no binding.
B5: no binding.

Each binder was assayed against T2, human RON (recepteur d'origine nantais, MST1R), full length, expressed on cells (human, UniProt Q04912 25-1400) (assay: flow cytometry on SW480 tumor cells, 4P fit (apparent affinity)).
T2 construct: On SW480 tumor cells it is endogenous; also called hRON; SW480-RON cells
Experimental: The binding of RON antibodies to RON expressing tumor cells was analyzed by flow cytometry, and an apparent affinity was calculated. Confluent SW480 cells were detached with 5 mM EDTA, washed 1× with FACS buffer (1% FCS, 0.05% sodium azide, 1×PBS) and resuspended at 0.5-1.0×10⁷/ml. The cells were added to a 96-well V bottom polypropylene plate at 100 μl/well. Antibody dilutions were made up in FACS buffer at 2× final concentration and added to the plate at 100 μl/well. The plate was incubated for 1 hour at 4° C., followed by washing 3× with FACS buffer. The cell pellets were then resuspended in 150 μl of PE labeled goat anti-murine IgG H & L secondary antibody, diluted 1/200, and incubated for 1 hour at 4° C. The cells were then washed 1× with FACS buffer and fixed with 150 μl 3% formaldehyde at room temperature for 10 minutes. The cell pellets were resuspended in 150 μl FACS buffer and analyzed by FACS. The EC50 of binding was calculated from the binding curves using a standard 4P fit equation.
With B1 the EC50 was 90 pM.
B2 gave an EC50 of 40 pM.
B3 was tested, and the EC50 was 70 pM.
With B4 the EC50 was 70 pM.
Work on B5 yielded an EC50 of 340 pM.
